In assay [1] the target is T1, CD3 on the surface of primary T cells (human, UniProt P07766 23-207).
T1 construct: whole, on cells; CD3 is a multimeric complex (ε, γ, δ, ζ chains) with the TCR; In the reporter assays CD3 stood on Jurkat cells; also called CD3ε
The experiment in a line: flow cytometry on isolated primary human T cells. The procedure: (§1) Binding of exemplary multispecific constructs containing an antigen-binding domain directed against B7H3 were assessed for binding to B7H3 positive A375 tumor cells or primary T-cells. The constructs were generated containing antigen-binding domain(s) that were either sdAbs or a FABs, and that were positioned either only N-terminal to the Fc or both N-terminal to the Fc and C-terminal to the anti-CD3 binding domain (see FIGS. 3A and 3C and Table E1.1). Among the various formats of constructs tested included: sdAb-Fc-dsFV-sdAb (cx3072, cx5952) sdAb-Fc-FV (cx6079), sdAb-Fc-dsFV (cs6080, cx6081), MAB-FV (cx5067) and MAB-dsFV (cx6083, cx6084), where the FV represents the anti-CD3 binding domain composed of VH and VL domain pairs and “ds” notes disulfide stabilized via an engineered interdomain disulfide bond.
(§2) Binding was assessed as described above via flow cytometry using a fluorophore-conjugated anti-human Fc secondary antibody. cx3072 bound to A375 cells with high affinity (FIG. 6A) but not to isolated T-cells (FIG. 6B). […] The B7H3-targeting sdAb containing constructs (cx5952, cx6079, cx6080, and cx6081) bound to B7H3 positive cells with similar affinities (depicted in FIG. 6E), with cx5952 displaying higher maximal binding. cx6079, cx6080 and cx6081 contain two identical B7H3-targeting sdAbs, whereas cx5952, and cx3072 contain two distinct B7H3-targeting sdAb that bind different epitopes. The MAB-FV, cx5067, contains two identical B7H3-targeting FAB domains.

The target in a further assay is T2, B7H3 (CD276) (human, UniProt Q5ZPR3 29-534).
T2 construct: whole, on cells
T2 sequence (looked up): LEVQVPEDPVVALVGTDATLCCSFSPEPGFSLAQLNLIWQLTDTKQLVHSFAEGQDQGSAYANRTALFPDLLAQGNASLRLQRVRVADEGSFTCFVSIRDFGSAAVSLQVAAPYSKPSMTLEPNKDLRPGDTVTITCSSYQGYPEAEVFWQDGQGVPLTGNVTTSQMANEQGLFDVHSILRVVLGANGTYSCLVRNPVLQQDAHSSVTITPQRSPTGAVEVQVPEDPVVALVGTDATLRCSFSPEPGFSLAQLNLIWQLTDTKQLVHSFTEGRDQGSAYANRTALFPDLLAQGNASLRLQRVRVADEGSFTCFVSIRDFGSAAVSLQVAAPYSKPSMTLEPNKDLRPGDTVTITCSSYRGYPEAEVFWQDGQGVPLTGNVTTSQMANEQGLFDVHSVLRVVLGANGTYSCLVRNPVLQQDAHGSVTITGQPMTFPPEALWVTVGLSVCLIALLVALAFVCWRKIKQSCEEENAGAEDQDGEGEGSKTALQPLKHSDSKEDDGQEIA
Briefly: flow cytometry on A375 cells, anti-human Fc secondary. The procedure:
as §1, §2

T1 sequence (P07766 23-207): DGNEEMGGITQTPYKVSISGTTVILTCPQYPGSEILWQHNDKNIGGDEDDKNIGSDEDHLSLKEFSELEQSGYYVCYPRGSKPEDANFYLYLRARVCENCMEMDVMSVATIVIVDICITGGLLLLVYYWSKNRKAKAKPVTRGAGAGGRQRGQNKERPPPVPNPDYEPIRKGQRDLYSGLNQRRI

B1: cx6081 (bispecific antibody)
chain 1: EVQLVESGGGEVQPGGSLRLSCAASGFSFSSNVMMWVRQAPGKGLEWVSTIYSSGTGTFYAESVKGRFTISRDNAKNTLYLQMSSLRPEDTAVYYCATSGPVRGWGPRSQGTLVTVKPPGGGGDKTHTCPPCPAPPVAGPSVFLFPPKPKDTLMISRTPEVTCVVVDVKHEDPEVKFNWYVDGVEVHNAKTKPREEEYNSTYRVVSVLTVLHQDWLNGKEYKCKVSNKALPAPIEKTISKAKGQPREPQVYTLPPSREEMTKNQVSLTCDVSGFYPSDIAVEWESDGQPENNYKTTPPVLDSDGSFFLYSKLTVDKSRWEQGDVFSCSVMHEALHNHYTQKSLSLSPGKGGGGSGGGGSGGGGSEVQLVESGGGLVQPGGSLRLSCAASGFTFNTYAMNWVRQAPGKCLEWVARIRSKYNNYATYYADSVKGRFTISRDDAKNTLYLQMSSLRAEDTAVYYCVRHGNFGNSYVSWFAYWGQGTLVTVKP
chain 2: EVQLVESGGGEVQPGGSLRLSCAASGFSFSSNVMMWVRQAPGKGLEWVSTIYSSGTGTFYAESVKGRFTISRDNAKNTLYLQMSSLRPEDTAVYYCATSGPVRGWGPRSQGTLVTVKPPGGGGDKTHTCPPCPAPPVAGPSVFLFPPKPKDTLMISRTPEVTCVVVDVKHEDPEVKFNWYVDGVEVHNAKTKPREEQYNSTYRVVSVLTVLHQDWLNGKEYKCKVSNKALPAPIEKTISKAKGQPREPQVYTLPPSREQMTKNQVKLTCLVKGFYPSDIAVEWESNGQPENNYKTTPPVLDSDGSFFLYSKLTVDKSRWQQGNVFSCSVMHEALHNHYTQKSLSLSPGKGGGGSGGGGSGGGGSQAVVTQEPSLTVSPGGTVTLTCGSSTGAVTTSNYANWVQQKPGQAFRGLIGGTNKRAPGVPARFSGSLLGGKAALTISGAQPEDEADYYCALWYSNHWVFGCGTKLEIK
notes: Heterodimer of chain 1 and chain 2; anti-CD3 Fv disulfide-stabilized (VH G44C / VL G100C); two identical B7H3 sdAbs, both N-terminal to the Fc; also called cs6081; B7H3-targeting constrained CD3 engaging construct
B1: the binding result in assay [1] is “no binding”; in the assay with B7H3 (CD276), “binds”.

B2: cx5067 (bispecific antibody)
chain 1: EVQLVESGGGLVQPGGSLRLSCAASGFTFSSFGMHWVRQAPGKGLEWVAYISSDSSAIYYADTVKGRFTISRDNAKNSLYLQMNSLRDEDTAVYYCGRGRENIYYGSRLDYWGQGTTVTVSSASTKGPSVFPLAPSSKSTSGGTAALGCLVKDYFPEPVTVSWNSGALTSGVHTFPAVLQSSGLYSLSSVVTVPSSSLGTQTYICNVNHKPSNTKVDKKVEPKSCDKTHTCPPCPAPPVAGPSVFLFPPKPKDTLMISRTPEVTCVVVDVKHEDPEVKFNWYVDGVEVHNAKTKPREEEYNSTYRVVSVLTVLHQDWLNGKEYKCKVSNKALPAPIEKTISKAKGQPREPQVYTLPPSREEMTKNQVSLTCDVSGFYPSDIAVEWESDGQPENNYKTTPPVLDSDGSFFLYSKLTVDKSRWEQGDVFSCSVMHEALHNHYTQKSLSLSPGKGGGGSGGGGSGGGGSEVQLVESGGGLVQPGGSLRLSCAASGFTFSTYAMNWVRQAPGKGLEWVGRIRSKYNNYATYYADSVKGRFTISRDDSKNTLYLQMNSLRAEDTAVYYCVRHGNFGDSYVSWFAYWGQGTLVTVSS
chain 2: EVQLVESGGGLVQPGGSLRLSCAASGFTFSSFGMHWVRQAPGKGLEWVAYISSDSSAIYYADTVKGRFTISRDNAKNSLYLQMNSLRDEDTAVYYCGRGRENIYYGSRLDYWGQGTTVTVSSASTKGPSVFPLAPSSKSTSGGTAALGCLVKDYFPEPVTVSWNSGALTSGVHTFPAVLQSSGLYSLSSVVTVPSSSLGTQTYICNVNHKPSNTKVDKKVEPKSCDKTHTCPPCPAPPVAGPSVFLFPPKPKDTLMISRTPEVTCVVVDVKHEDPEVKFNWYVDGVEVHNAKTKPREEQYNSTYRVVSVLTVLHQDWLNGKEYKCKVSNKALPAPIEKTISKAKGQPREPQVYTLPPSREQMTKNQVKLTCLVKGFYPSDIAVEWESNGQPENNYKTTPPVLDSDGSFFLYSKLTVDKSRWQQGNVFSCSVMHEALHNHYTQKSLSLSPGKGGGGSGGGGSGGGGSQAVVTQEPSLTVSPGGTVTLTCGSSTGAVTTSNYANWVQQKPGKSPRGLIGGTNKRAPGVPARFSGSLLGGKAALTISGAQPEDEADYYCALWYSNHWVFGGGTKLTVL
light: DIQLTQSPSFLSASVGDRVTITCKASQNVDTNVAWYQQKPGKAPKALIYSASYRYSGVPSRFSGSGSGTDFTLTISSLQPEDFATYYCQQYNNYPFTFGQGTKLEIKRTVAAPSVFIFPPSDEQLKSGTASVVCLLNNFYPREAKVQWKVDNALQSGNSQESVTEQDSKDSTYSLSSTLTLSKADYEKHKVYACEVTHQGLSSPVTKSFNRGEC
notes: Three polypeptides; two identical B7H3 Fab domains; anti-CD3 Fv not disulfide-stabilized; also called MAB-FV; B7H3-targeted constrained CD3 engaging construct (Fab format)
For B2, the results for the binding result (in assay [1]; with B7H3 (CD276)) were “no binding” and “binds”, respectively.

The record behind these values is US20230295336A1 (INHIBRX, published 2023).
